Measured values published in publication PMC4132801, “A Structural and Biochemical Model of Processive Chitin Synthesis” (The Journal of Biological Chemistry, 2014).

T1: SmNodC (Sinorhizobium meliloti, UniProt P04341)
T1 construct: gene nodC; full-length (1-426), C-terminal mCherry-His fusion from pEXmCherry, E. coli BL21(DE3) C43 membrane fraction, not purified
T1 sequence (P04341 1-426): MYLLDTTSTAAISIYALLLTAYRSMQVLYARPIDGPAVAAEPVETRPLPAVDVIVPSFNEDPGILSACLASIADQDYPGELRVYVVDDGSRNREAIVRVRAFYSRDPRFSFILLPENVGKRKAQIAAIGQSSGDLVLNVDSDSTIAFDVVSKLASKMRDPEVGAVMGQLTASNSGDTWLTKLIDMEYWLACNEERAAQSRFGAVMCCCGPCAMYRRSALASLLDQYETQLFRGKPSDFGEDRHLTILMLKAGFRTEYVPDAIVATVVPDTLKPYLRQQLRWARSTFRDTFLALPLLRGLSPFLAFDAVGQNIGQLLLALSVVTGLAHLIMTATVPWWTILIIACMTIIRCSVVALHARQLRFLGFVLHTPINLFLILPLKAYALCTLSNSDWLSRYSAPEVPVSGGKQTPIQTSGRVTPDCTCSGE

B1: SmNodC (Sinorhizobium meliloti 1021) (protein)
chain: T1 sequence (P04341 1-426)
notes: full-length (1-426), C-terminal mCherry-His fusion from pEXmCherry, E. coli BL21(DE3) C43 membrane fraction, not purified

Legend:
Assay in all cases: coupled fluorogenic assay: chitinase B releases 4MU from 4MU-chitooligosaccharide product
SmNodC = target: T1, SmNodC; format: biochemical
Excerpt: coupled fluorogenic assay: chitinase B releases 4MU from 4MU-chitooligosaccharide product on SmNodC | Nikkomycin Z is a competitive inhibitor with the substrate UDP-GlcNAc, with a Ki of […]

[1] = substrate: CC(=O)N[C@H]1[C@@H](OP(=O)(O)OP(=O)(O)OC[C@H]2O[C@@H](n3ccc(=O)[nH]c3=O)[C@H](O)[C@@H]2O)O[C@H](CO)[C@@H](O)[C@@H]1O; format: biochemical, Sinorhizobium meliloti; details: excess 4MU-GlcNAc as co-substrate, 10 mM MgCl2, pH 7.5, 250 mM NaCl, 20 °C, E. coli membrane fraction
[2] = substrate: CC(=O)N[C@H]1[C@H](Oc2ccc3c(C)cc(=O)oc3c2)O[C@H](CO)[C@@H](O)[C@@H]1O; format: biochemical, Sinorhizobium meliloti; details: acceptor substrate, excess UDP-GlcNAc as co-substrate, 10 mM MgCl2, pH 7.5, 250 mM NaCl, 20 °C, E. coli membrane fraction

Row | Molecule | Ki (SmNodC) [nM] | Km [1] [µM] | Km [2] [µM]
1 | C[C@@H]([C@H](N)C(=O)N[C@H](C(=O)O)[C@H]1O[C@@H](n2ccc(=O)[nH]c2=O)[C@H](O)[C@@H]1O)[C@H](O)c1ccc(O)cn1 [Nikkomycin Z] | 250 |  | 
2 | B1 |  | 90 ± 15 | 1600 ± 400
